Measured values taken from PMC5025710, “The N-terminal domain plays a crucial role in the structure of a full-length human mitochondrial Lon protease” (Scientific Reports, 2016).

Columns and labels:
[1] = molecular target: proteolytically inactive human mitochondrial Lon protease mutant hLon S855A (human) (UniProt P36776); test: cryo-EM structure; hLon S855A incubated with 1 mM AMP-PNP, 1 mg/ml diluted 5× in buffer B (20 mM HEPES pH 8.0, 150 mM NaCl, 5 mM MgCl2); map at 15 Å
[2] = molecular target: proteolytically inactive human mitochondrial Lon protease mutant hLon S855A (human) (UniProt P36776); test: cryo-EM structure; hLon S855A incubated with 1 mM ADP, 1 mg/ml diluted 5× in buffer B (20 mM HEPES pH 8.0, 150 mM NaCl, 5 mM MgCl2); map at 21 Å
[3] = molecular target: the molecule itself; test: cryo-EM 2D class averages; hLonΔ270, 1 mg/ml diluted 5× in buffer B; 2D class averages (Relion) compared with projections of five and six fitted 3M6A subunits; no 3D map
[4] = molecular target: T1, hLonΔ270 mutant (Δ1–270), human Lon lacking its first 270 amino acids (human) (UniProt P36776)
T1 sequence: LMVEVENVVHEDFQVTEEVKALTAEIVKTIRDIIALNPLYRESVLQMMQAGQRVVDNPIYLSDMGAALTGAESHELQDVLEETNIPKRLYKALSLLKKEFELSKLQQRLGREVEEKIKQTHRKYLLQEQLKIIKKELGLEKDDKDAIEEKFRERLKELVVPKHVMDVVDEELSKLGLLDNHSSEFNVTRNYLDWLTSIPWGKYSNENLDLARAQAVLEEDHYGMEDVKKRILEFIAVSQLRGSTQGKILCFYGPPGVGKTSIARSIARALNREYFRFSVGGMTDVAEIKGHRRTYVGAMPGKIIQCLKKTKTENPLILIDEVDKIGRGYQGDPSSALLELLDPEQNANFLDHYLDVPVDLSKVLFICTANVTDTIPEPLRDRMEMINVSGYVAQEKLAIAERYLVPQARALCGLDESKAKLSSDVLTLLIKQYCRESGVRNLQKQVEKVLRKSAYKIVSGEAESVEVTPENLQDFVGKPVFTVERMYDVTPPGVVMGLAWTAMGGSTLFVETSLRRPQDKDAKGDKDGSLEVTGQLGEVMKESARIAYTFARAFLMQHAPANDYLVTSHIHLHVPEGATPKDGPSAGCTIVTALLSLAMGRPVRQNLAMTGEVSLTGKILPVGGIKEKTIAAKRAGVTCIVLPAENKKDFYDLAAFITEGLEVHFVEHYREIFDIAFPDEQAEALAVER

Molecule: proteolytically inactive human mitochondrial Lon protease mutant hLon S855A (from UniProt P36776 68-959) (enzyme)
- stoichiometry N [1]: 6
- stoichiometry N [2]: 6

B1: hLonΔ270 mutant (Δ1–270), human Lon lacking its first 270 amino acids (domain or fragment, UniProt P36776 271-959, looked up)
chain: T1 sequence
notes: primers Lon_271_FW and Lon_960_RV (to the stop codon); A few vector residues probably remain after PreScission cleavage (surmised from the primer); also called shortened hLon; source: in-fusion cloning into pOPINJ; not shown: 6×His-GST, N-terminal, cleaved
- stoichiometry N [3]: 6

B2: β-casein (natural protein)
chain: RELEELNVPGEIVESLSSSEESITRINKKIEKFQSEEQQQTEDELQDKIHPFAQTQSLVYPFPGPIPNSLPQNIPPLTQTPVVVPPFLQPEVMGVSKVKEAMAPKHKEMPFPKYPVEPFTESQSLTLTDVENLHLPLPLLQSWMHQPHQPLPPTVMFPPQSVLSLSQSKVLPVPQKAVPYPQRDMPIQAFLLYQEPVLGPVRGPFPIIV
- stimulation of the ATPase activity of hLonΔ270 by β-casein (25 μg β-casein, 5 μg hLon, 37 °C) [4]: 2 fold
- stimulation of the peptidase activity of hLonΔ270 (glutaryl-Ala-Ala-Phe-MNA) by β-casein (25 μg β-casein, 5 μg hLon, 37 °C) [4]: 2 fold
